The values that follow come from publication PMC4368675, “A Single parS Sequence from the Cluster of Four Sites Closest to oriC Is Necessary and Sufficient for Proper Chromosome Segregation in Pseudomonas aeruginosa”.

Data set [1] concerns the target T1, ParB (Pseudomonas aeruginosa, UniProt Q9HT12 1-290).
T1 sequence: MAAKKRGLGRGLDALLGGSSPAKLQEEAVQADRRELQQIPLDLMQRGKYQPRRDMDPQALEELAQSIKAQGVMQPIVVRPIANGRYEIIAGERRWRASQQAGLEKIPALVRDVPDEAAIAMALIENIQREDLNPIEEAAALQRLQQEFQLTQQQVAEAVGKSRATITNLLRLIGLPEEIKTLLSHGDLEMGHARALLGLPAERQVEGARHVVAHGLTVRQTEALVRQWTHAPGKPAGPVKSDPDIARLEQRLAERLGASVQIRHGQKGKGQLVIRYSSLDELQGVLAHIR
Put plainly: EMSA; no specific complex; nonspecific smearing at ParB >5 uM; 10 mM Tris-HCl pH 7.5, 0.5 mM DTT, 50 mM KCl, 1 mM MgCl2, 20 ul, 6 pmol labelled DNA, 18 pmol nonspecific competitor (titrations) or 240 pmol ParB plus 18-180 pmol unlabelled parS2 (dissociation), 15 min 37 C; 5% PAGE in 0.5x TBE. The settings on record: protein: recombinant; tags: His6 (pET28-derived pKLB28); chain copies: 2; label: 5'-Cy5 on strand 1; blunt. For orientation: A gel shift assay detects complexes by their altered migration in electrophoresis.

Data set [2] has as its target T1, ParB. Put plainly: EMSA; hierarchy: below parS1/4, equal to parS7, parS8; 10 mM Tris-HCl pH 7.5, 0.5 mM DTT, 50 mM KCl, 1 mM MgCl2, 20 ul, 6 pmol labelled DNA, 18 pmol nonspecific competitor (titrations) or 240 pmol ParB plus 18-180 pmol unlabelled parS2 (dissociation), 15 min 37 C; 5% PAGE in 0.5x TBE. The note with it: protein: recombinant; tags: His6 (pET28-derived pKLB28); chain copies: 2; label: 5'-Cy3 on strand 1; 5' overhang 4 nt at both ends.

For data set [3], the target named is T1, ParB. Kind of data set: EMSA; no significant difference from wt parS5; unlabelled parS2 competitor; 10 mM Tris-HCl pH 7.5, 0.5 mM DTT, 50 mM KCl, 1 mM MgCl2, 20 ul, 6 pmol labelled DNA, 18 pmol nonspecific competitor (titrations) or 240 pmol ParB plus 18-180 pmol unlabelled parS2 (dissociation), 15 min 37 C; 5% PAGE in 0.5x TBE. The settings on record: protein: recombinant; tags: His6 (pET28-derived pKLB28); chain copies: 2; label: 5'-Cy5 on strand 1; 5' overhang 4 nt at both ends.

Data set [4] concerns the target T1, ParB. Put plainly: EMSA; second in hierarchy; competed by unlabelled parS2; 10 mM Tris-HCl pH 7.5, 0.5 mM DTT, 50 mM KCl, 1 mM MgCl2, 20 ul, 6 pmol labelled DNA, 18 pmol nonspecific competitor (titrations) or 240 pmol ParB plus 18-180 pmol unlabelled parS2 (dissociation), 15 min 37 C; 5% PAGE in 0.5x TBE. The note with it: protein: recombinant; tags: His6 (pET28-derived pKLB28); chain copies: 2; label: 5'-Cy3 on strand 1; 5' overhang 4 nt at both ends.

Data set [5] has as its target T1, ParB. Put plainly: EMSA; hierarchy: below parS7-9, above parS6; 10 mM Tris-HCl pH 7.5, 0.5 mM DTT, 50 mM KCl, 1 mM MgCl2, 20 ul, 6 pmol labelled DNA, 18 pmol nonspecific competitor (titrations) or 240 pmol ParB plus 18-180 pmol unlabelled parS2 (dissociation), 15 min 37 C; 5% PAGE in 0.5x TBE. The settings on record: protein: recombinant; tags: His6 (pET28-derived pKLB28); chain copies: 2; label: 5'-Cy3 on strand 1; 5' overhang 4 nt at both ends.

Data set [6] concerns the target T1, ParB. Kind of data set: EMSA; hierarchy: below parS1/4, equal to parS7, parS9; 10 mM Tris-HCl pH 7.5, 0.5 mM DTT, 50 mM KCl, 1 mM MgCl2, 20 ul, 6 pmol labelled DNA, 18 pmol nonspecific competitor (titrations) or 240 pmol ParB plus 18-180 pmol unlabelled parS2 (dissociation), 15 min 37 C; 5% PAGE in 0.5x TBE. The settings on record: protein: recombinant; tags: His6 (pET28-derived pKLB28); chain copies: 2; label: 5'-Cy3 on strand 1; 5' overhang 4 nt at both ends.

In data set [7] the target is T1, ParB. Put plainly: EMSA; lowest of the wt sites in hierarchy; 10 mM Tris-HCl pH 7.5, 0.5 mM DTT, 50 mM KCl, 1 mM MgCl2, 20 ul, 6 pmol labelled DNA, 18 pmol nonspecific competitor (titrations) or 240 pmol ParB plus 18-180 pmol unlabelled parS2 (dissociation), 15 min 37 C; 5% PAGE in 0.5x TBE. The note with it: protein: recombinant; tags: His6 (pET28-derived pKLB28); chain copies: 2; label: 5'-Cy3 on strand 1; 5' overhang 4 nt at both ends.

Data set [8] deals with T1, ParB. Put plainly: EMSA; hierarchy: below parS10, above parS5; 10 mM Tris-HCl pH 7.5, 0.5 mM DTT, 50 mM KCl, 1 mM MgCl2, 20 ul, 6 pmol labelled DNA, 18 pmol nonspecific competitor (titrations) or 240 pmol ParB plus 18-180 pmol unlabelled parS2 (dissociation), 15 min 37 C; 5% PAGE in 0.5x TBE. The note with it: protein: recombinant; tags: His6 (pET28-derived pKLB28); chain copies: 2; label: 5'-Cy3 on strand 1; 5' overhang 4 nt at both ends.

Data set [9] concerns the target T1, ParB. Put plainly: EMSA; highest in affinity hierarchy; 10 mM Tris-HCl pH 7.5, 0.5 mM DTT, 50 mM KCl, 1 mM MgCl2, 20 ul, 6 pmol labelled DNA, 18 pmol nonspecific competitor (titrations) or 240 pmol ParB plus 18-180 pmol unlabelled parS2 (dissociation), 15 min 37 C; 5% PAGE in 0.5x TBE. The note with it: protein: recombinant; tags: His6 (pET28-derived pKLB28); chain copies: 2; label: 5'-Cy3 on strand 1; 5' overhang 4 nt at both ends.

The target in data set [10] is T1, ParB. Kind of data set: EMSA; hierarchy: below parS1/4, equal to parS8, parS9; 10 mM Tris-HCl pH 7.5, 0.5 mM DTT, 50 mM KCl, 1 mM MgCl2, 20 ul, 6 pmol labelled DNA, 18 pmol nonspecific competitor (titrations) or 240 pmol ParB plus 18-180 pmol unlabelled parS2 (dissociation), 15 min 37 C; 5% PAGE in 0.5x TBE. The settings on record: protein: recombinant; tags: His6 (pET28-derived pKLB28); chain copies: 2; label: 5'-Cy3 on strand 1; 5' overhang 4 nt at both ends; one mismatch as printed.

B1: nonspecific control (dsDNA)
DNA 1: GATAGCTCTTTGCCATTAAC
DNA 2: GTTAATGGCAAAGAGCTATC
On to B1, for which, in the data set with ParB [1], the binding result is recorded as “no binding”.

B2: parS9 (dsDNA)
DNA 1: AATTCAAGCTTTGTTCCACGAGGAAGAG
DNA 2: TCGACTCTTCCTCGTGGAACAAAGCTTG
For the molecule B2, in the data set with ParB [2], the binding result is “binds”.

B3: parS5* (dsDNA)
DNA 1: AATTCAAGCTTTATTGTATATGGAGCAG
DNA 2: TCGACTGCTCCATATACAATAAAGCTTG
For B3, the binding result in the data set with ParB [3] was “binds”.

B4: parS1/parS4 (dsDNA)
DNA 1: AATTCAAGCTTTGTTCCACGTGGAACCG
DNA 2: TCGACGGTTCCACGTGGAACAAAGCTTG
On to B4, for which, in the data set with ParB [4], the binding result is reported as “binds”.

B5: parS10 (dsDNA)
DNA 1: AATTCAAGCTTTGTTCCACAGGGAACAG
DNA 2: TCGACTGTTCCCTGTGGAACAAAGCTTG
Take B5: the binding result in the data set with ParB [5] is “binds”.

B6: parS8 (dsDNA)
DNA 1: AATTCAAGCTTTGTTCCACGAGGCACAG
DNA 2: TCGACTGTGCCTCGTGGAACAAAGCTTG
As for B6, the binding result with ParB [6] is given as “binds”.

B7: parS5 (dsDNA)
DNA 1: AATTCAAGCTTTGTTCTACATGGAACAG
DNA 2: TCGACTGTTCCATGTAGAACAAAGCTTG
Take B7: the binding result with ParB [7] was “binds”.

B8: parS6 (dsDNA)
DNA 1: AATTCAAGCTTCGTTCCACGTGGAAGAG
DNA 2: TCGACTCTTCCACGTGGAACGAAGCTTG
For the molecule B8, the binding result with ParB [8] was “binds”.

B9: parS2/parS3 (dsDNA)
DNA 1: AATTCAAGCTTTGTTCCACGTGGAACAG
DNA 2: TCGACTGTTCCACGTGGAACAAAGCTTG
With B9, in the data set with ParB [9], the binding result was “binds”.

B10: parS7 (dsDNA)
DNA 1: AATTCAAGCTTTGTTCCACGAGGAACCG
DNA 2: TCGACCGTTCCTCGTGGAACAAAGCTTG
B10: the binding result with ParB [10] is listed as “binds”.
